This note sets out measurements from US20210032664, “ENGINEERED MEGANUCLEASES WITH RECOGNITION SEQUENCES FOUND IN THE HUMAN BETA-2 MICROGLOBULIN GENE” (Precision Biosciences, Inc., published 2021).

What all share (test): cell_activity; human T cells, 1 ug mRNA, day 3
Settings in all cases: tags: N-terminal SV40 NLS

Series [1] has as its target T1, B2M 13-14x.378 (Artificial Sequence).
T1 chain: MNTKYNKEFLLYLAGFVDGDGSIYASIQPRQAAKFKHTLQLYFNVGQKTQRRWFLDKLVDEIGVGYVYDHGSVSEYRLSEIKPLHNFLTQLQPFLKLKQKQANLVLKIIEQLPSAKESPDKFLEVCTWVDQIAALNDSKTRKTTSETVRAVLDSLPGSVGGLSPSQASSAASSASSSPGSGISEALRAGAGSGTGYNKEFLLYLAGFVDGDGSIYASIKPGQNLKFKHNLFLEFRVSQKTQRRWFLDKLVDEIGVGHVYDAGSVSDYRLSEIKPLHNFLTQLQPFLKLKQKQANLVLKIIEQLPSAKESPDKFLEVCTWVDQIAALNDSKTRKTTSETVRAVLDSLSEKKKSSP
As to the method:
(§1) Donor human T cells were stimulated with anti-CD3 and anti-CD28 antibodies for 3 days, then electroporated with mRNA encoding a given B2M 13-14 meganuclease (1 μg) using the Amaxa 4D-Nucleofector (Lonza) according to the manufacturer's instructions. To look for the loss of B2M surface expression, cells were stained with an antibody recognizing β-2 microglobulin (BD Biosciences) as well as an antibody recognizing CD3 (BioLegend), a marker of T cells.

Series [2] deals with T2, B2M 13-14x.283 (Artificial Sequence).
T2 chain: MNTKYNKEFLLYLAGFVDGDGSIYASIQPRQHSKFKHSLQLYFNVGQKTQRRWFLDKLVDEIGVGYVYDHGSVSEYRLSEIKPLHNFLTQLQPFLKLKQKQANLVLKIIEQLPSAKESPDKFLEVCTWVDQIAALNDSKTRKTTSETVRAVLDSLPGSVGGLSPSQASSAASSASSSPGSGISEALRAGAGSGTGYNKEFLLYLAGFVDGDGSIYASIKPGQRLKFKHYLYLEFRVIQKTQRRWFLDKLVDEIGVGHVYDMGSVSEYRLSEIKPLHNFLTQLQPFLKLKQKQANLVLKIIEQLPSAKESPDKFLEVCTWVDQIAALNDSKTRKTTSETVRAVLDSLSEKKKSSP
How it is done: as §1

The target in series [3] is T3, B2M 13-14x.365 (Artificial Sequence).
T3 chain: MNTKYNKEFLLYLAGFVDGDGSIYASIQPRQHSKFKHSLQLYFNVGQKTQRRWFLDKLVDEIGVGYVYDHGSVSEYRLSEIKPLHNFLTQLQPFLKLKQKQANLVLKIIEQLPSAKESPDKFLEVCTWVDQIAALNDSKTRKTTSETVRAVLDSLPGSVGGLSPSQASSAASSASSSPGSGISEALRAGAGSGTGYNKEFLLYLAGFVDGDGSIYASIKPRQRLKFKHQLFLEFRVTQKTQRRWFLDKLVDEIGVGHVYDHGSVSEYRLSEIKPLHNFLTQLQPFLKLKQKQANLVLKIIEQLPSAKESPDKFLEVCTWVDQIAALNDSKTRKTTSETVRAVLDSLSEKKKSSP
As to the method: as §1

The target of series [4] is T4, B2M 13-14x.464 (Artificial Sequence).
T4 chain: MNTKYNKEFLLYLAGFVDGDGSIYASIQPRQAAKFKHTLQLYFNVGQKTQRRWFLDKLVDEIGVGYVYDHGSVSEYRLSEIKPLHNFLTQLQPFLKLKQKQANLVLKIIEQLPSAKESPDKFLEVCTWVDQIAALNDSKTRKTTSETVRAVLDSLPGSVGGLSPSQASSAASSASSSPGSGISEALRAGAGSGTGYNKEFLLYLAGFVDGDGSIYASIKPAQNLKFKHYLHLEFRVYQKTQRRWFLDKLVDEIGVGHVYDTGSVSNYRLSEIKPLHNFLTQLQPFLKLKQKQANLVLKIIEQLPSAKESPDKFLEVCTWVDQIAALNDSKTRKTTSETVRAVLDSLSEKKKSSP
How it is done:
as §1

Series [5] addresses T5, B2M 13-14x.551 (Artificial Sequence).
T5 chain: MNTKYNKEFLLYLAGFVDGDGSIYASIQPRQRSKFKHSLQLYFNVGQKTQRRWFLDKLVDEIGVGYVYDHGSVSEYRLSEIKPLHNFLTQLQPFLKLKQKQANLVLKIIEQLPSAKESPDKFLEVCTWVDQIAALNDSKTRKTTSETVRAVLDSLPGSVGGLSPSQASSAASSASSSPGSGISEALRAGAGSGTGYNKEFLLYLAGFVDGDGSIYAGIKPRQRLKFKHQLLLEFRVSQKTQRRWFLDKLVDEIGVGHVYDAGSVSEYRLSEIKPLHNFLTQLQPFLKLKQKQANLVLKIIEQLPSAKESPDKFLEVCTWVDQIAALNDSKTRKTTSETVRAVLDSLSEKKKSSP
How it is done:
as §1

Series [6] concerns the target T6, B2M 13-14x.362 (Artificial Sequence).
T6 chain: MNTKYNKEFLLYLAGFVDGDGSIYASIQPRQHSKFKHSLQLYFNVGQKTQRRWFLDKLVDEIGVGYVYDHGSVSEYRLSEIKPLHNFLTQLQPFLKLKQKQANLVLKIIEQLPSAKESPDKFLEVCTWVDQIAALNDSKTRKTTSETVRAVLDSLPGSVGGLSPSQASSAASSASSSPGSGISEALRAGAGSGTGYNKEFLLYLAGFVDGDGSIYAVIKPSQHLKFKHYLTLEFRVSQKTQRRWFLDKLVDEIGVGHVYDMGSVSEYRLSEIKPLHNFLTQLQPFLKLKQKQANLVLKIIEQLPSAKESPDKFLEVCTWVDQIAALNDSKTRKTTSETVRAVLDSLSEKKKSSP
How it is done:
as §1

In series [7] the target is T7, B2M 13-14x.285 (Artificial Sequence).
T7 chain: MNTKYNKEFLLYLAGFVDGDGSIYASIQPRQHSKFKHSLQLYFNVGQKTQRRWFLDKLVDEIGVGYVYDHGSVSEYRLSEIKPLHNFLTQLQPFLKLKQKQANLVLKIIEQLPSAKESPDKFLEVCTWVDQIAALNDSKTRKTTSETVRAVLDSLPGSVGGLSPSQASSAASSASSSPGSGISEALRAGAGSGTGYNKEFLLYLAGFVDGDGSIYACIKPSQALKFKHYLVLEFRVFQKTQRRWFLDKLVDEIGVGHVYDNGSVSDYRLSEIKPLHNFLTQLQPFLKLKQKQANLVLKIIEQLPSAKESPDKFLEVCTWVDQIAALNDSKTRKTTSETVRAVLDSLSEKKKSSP
As to the method: as §1

B1: B2M 13-14 recognition sequence (dsDNA)
DNA 1: CTATCTCTTGTACTACACTGAA
DNA 2: TTCAGTGTAGTACAAGAGATAG
As to B1, the activity in series [1] is 3.54 % B2M-negative; in series [2], 49.3 % B2M-negative; in series [3], 27.4 % B2M-negative; in series [4], 8.24 % B2M-negative; in series [5], 40.3 % B2M-negative; in series [6], 37.8 % B2M-negative. Also, the activity in series [7] stood at 22 % B2M-negative.
